Measured values from the supplement of paper PMC7877785.
± gives the uncertainty stated by the source.

Experiment: self-splicing fitness, log relative to wild type (ln ratio); higher = more splicing; Tetrahymena group I intron in knt gene, E. coli kanamycin selection, DiMSum; sequences stand for … in CUCUCU…GGAGGGAAAAGUUAUCAGGCAUGCACCUGGUAGCUAGUCUUUAAACCAAUAGAUUGCAUCGGUUUAAAAGGCAAGACCGUCAAAUUGCGGGAAAGGGGUCAACAGCCGUUCAGUACCAAGUCUCAGGGGAAACUUUGAGAUGGCCUUGCAAAGGGUAUGGUAAUAAGCUGACGGACAUGGUCCUAACCACGCAGCCAAGUCCUAAGUCAACAGAUCUUCUGUUGAUAUGGAUGCAGUUCACAGACUAAAUGUCGGUCGGGGAAGAUGUAUUCUUCUCAUAAGAUAUAGUCGGACCUCUCCUUAAUGGGAGCUAGCGGAUGAAGUGAUGCAACACUGGAGCCGCUGGGAACUAAUUUGUAUGCGAAAGUAUAUUGAUUAGUUUUGGAGUACUCGUGGUCG
Procedure, shortened: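 Colonies from six replicate transformations of E. coli BL21(DE3) were pooled and amplicon-sequenced on an Illumina HiSeq 2500. The library placed an intron with all eight P1ex-region nucleotides randomised inside the knt kanamycin-resistance gene on pET-22b(+), and cells grew overnight at 37°C or 30°C on LB agar with or without 25 μg/mL kanamycin (plus 100 μg/mL carbenicillin, 50 μM IPTG, 0.2% rhamnose). Fitness is the DiMSum error-weighted combination of wild-type-normalised replicate fold changes, kanamycin versus none.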

| Sequence | self-splicing fitness (ln) (30 °C) | self-splicing fitness (ln) (37 °C) |
| --- | --- | --- |
| GCCCAGCAAUAUUACGUACA | -2.17 ± 0.1 | -0.789 ± 0.096 |
| GCCCAGCAAUAUUACGUCAU | -2.82 ± 0.1 | -1.29 ± 0.097 |
| GCCCAGCAAUAUUACGUCCU | -1.19 ± 0.11 | -0.722 ± 0.17 |
| GCCCAGCAAUAUUACGUCUU | -0.849 ± 0.061 | -0.668 ± 0.09 |
| GCCCAGCAAUAUUACGUGUA | -0.725 ± 0.046 | -0.0902 ± 0.058 |
| GCCCAGCAAUAUUACGUUCG | -3.71 ± 0.18 | -2.52 ± 0.22 |
| GCCGAGCAAUAUUACGACUA | -0.948 ± 0.16 | -2.21 ± 0.27 |
| GCCGAGCAAUAUUACGAUUA | -1.44 ± 0.13 | -1.39 ± 0.15 |
| GCCGAGCAAUAUUACGAUUC | -1.3 ± 0.13 | 0.294 ± 0.17 |
| GCCGAGCAAUAUUACGGACC | -2.47 ± 0.35 | -1.51 ± 0.39 |
| GCCGAGCAAUAUUACGGCAU | -4.31 ± 0.46 | -3.06 ± 0.35 |
| GCCGAGCAAUAUUACGGCUU | – | -2.08 ± 0.41 |
| GCCGAGCAAUAUUACGGUAG | -1.99 ± 0.15 | -3.24 ± 0.33 |
| GCCGAGCAAUAUUACGGUGC | -2.75 ± 0.24 | -2.48 ± 0.29 |
| GCCGAGCAAUAUUACGUACG | -2.46 ± 0.43 | -1.56 ± 0.26 |
| GCCGAGCAAUAUUACGUCAG | -3.33 ± 0.16 | -1.87 ± 0.19 |
| GCCGAGCAAUAUUACGUCGA | -2.36 ± 0.2 | -0.182 ± 0.14 |
| GCCGAGCAAUAUUACGUCGG | -4.39 ± 0.46 | – |
| GCCGAGCAAUAUUACGUGGA | -1.68 ± 0.12 | -1.76 ± 0.15 |

| Sequence | self-splicing fitness (ln) (30 °C) | self-splicing fitness (ln) (37 °C) |
| --- | --- | --- |
| GCCUAGCAAUAUUACGAACA | -2.17 ± 0.22 | -1.03 ± 0.19 |
| GCCUAGCAAUAUUACGACCA | -1.08 ± 0.14 | -1.34 ± 0.13 |
| GCCUAGCAAUAUUACGACCC | -1.59 ± 0.21 | -0.272 ± 0.25 |
| GCCUAGCAAUAUUACGAGAC | -1.85 ± 0.16 | 0.662 ± 0.12 |
| GCCUAGCAAUAUUACGAUGU | -0.317 ± 0.081 | 0.35 ± 0.12 |
| GCCUAGCAAUAUUACGCCAU | – | -1.68 ± 0.45 |
| GCCUAGCAAUAUUACGCCGU | -1.01 ± 0.15 | -0.292 ± 0.13 |
| GCCUAGCAAUAUUACGCGCG | -1.66 ± 0.23 | -1.18 ± 0.22 |
| GCCUAGCAAUAUUACGCUUA | -1.01 ± 0.1 | -0.807 ± 0.11 |
| GCCUAGCAAUAUUACGGGAA | -0.327 ± 0.091 | 0.158 ± 0.11 |
| GCCUAGCAAUAUUACGGGGA | -0.34 ± 0.067 | -0.0121 ± 0.09 |
| GCCUAGCAAUAUUACGGGUA | -0.787 ± 0.072 | 0.611 ± 0.067 |
| GCCUAGCAAUAUUACGGUGA | -1.09 ± 0.067 | -0.113 ± 0.073 |
| GCCUAGCAAUAUUACGUCAC | -3.49 ± 0.24 | -2.04 ± 0.22 |
| GCCUAGCAAUAUUACGUCUA | -3.26 ± 0.38 | -1.73 ± 0.2 |
| GCCUAGCAAUAUUACGUGCC | -3.38 ± 0.23 | -2.08 ± 0.23 |
| GCCUAGCAAUAUUACGUUGG | -3.78 ± 0.32 | -2.7 ± 0.25 |
| GCGAAGCAAUAUUACGACAA | -2.21 ± 0.18 | -0.672 ± 0.12 |
| GCGAAGCAAUAUUACGACAG | -3.79 ± 0.16 | -1.97 ± 0.21 |
